Measurements reported in publication PMC5945002.

Target: BrvH, flavin-dependent halogenase (predicted gene 12 of the Botany Bay metagenome) (Brevundimonas BAL3 (most likely; gene found in the Botany Bay metagenome))
Assay: SEC; 16/60 Superdex 200, 10 mM Tris 20 mM NaCl pH 8, 4 °C, flow rate 1 mL/min; last step of the purification for crystallisation

stoichiometry N: 2
Substance: BrvH, flavin-dependent halogenase (predicted gene 12 of the Botany Bay metagenome) (enzyme)
